Test results as given in the supplement of paper PMC10724198.
± gives the standard deviation of the averaged measurements.

Tests used:
Saccharomyces cerevisiae [1] = experiment: protein stability index of tFT-peptide fusion (C-terminal peptide) (PSI (0-1 scale)); higher = more stable (slower turnover)
Experimental: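 MPS profiling in S. cerevisiae of the tFT-X12 degron library: putative degron peptides plus stable controls, 12 aa, fused to the C-terminus of a sfGFP-mCherry timer. Cells are FACS-sorted into 8 mCherry/sfGFP bins and deep-sequenced. PSI runs from 0 (unstable) to 1 (stable). Backgrounds are wild type, das1Δ and doa10Δ at 30 °C, and wild type, das1Δ, cdc34-1 and cdc53-1 at 37 °C; 2-3 technical replicates each.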

Saccharomyces cerevisiae [2] = experiment: as above; details: genetic background: wild type; temperature: 30 C
[3] = genetic background: cdc34-1, temperature: 37 C
[4] = genetic background: cdc53-1, temperature: 37 C
[5] = genetic background: das1 deletion, temperature: 30 C
[6] = genetic background: das1 deletion, temperature: 37 C
[7] = genetic background: doa10 deletion, temperature: 30 C
[8] = genetic background: wild type, temperature: 30 C
[9] = genetic background: wild type, temperature: 37 C
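Further: PSI is a weighted mean of sequencing reads over stability bins, variants kept only with over 10 reads, mCherry proximal and sfGFP distal, peptide attached via GGGS linker.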

Row | Sequence | protein stability index (Saccharomyces cerevisiae [1]; [3]) | protein stability index (Saccharomyces cerevisiae [1]; [4]) | protein stability index (Saccharomyces cerevisiae [1]; [5]) | protein stability index (Saccharomyces cerevisiae [1]; [6]) | protein stability index (Saccharomyces cerevisiae [1]; [7]) | protein stability index (Saccharomyces cerevisiae [1]; [8]) | protein stability index (Saccharomyces cerevisiae [1]; [9]) | protein stability index (Saccharomyces cerevisiae [2])
1 | TFVLREYVWVMS | 0.443 ± 0.049 | 0.425 ± 0.011 | 0.254 ± 0.038 | 0.443 ± 0.0057 | 0.202 ± 0.0032 | 0.231 ± 0.027 | 0.426 ± 0.027 | 0.304 ± 0.0032
2 | FFGFFWLFLLFC | 0.239 ± 0.022 | 0.222 ± 0.005 | 0.291 ± 0.021 | 0.364 ± 0.016 | 0.318 ± 0.019 | 0.202 ± 0.033 | 0.257 ± 0.02 | 0.267 ± 0.0029
3 | LLRLCGFPLGVG | 0.466 ± 0.027 | 0.54 ± 0.0086 | 0.488 ± 0.014 | 0.55 ± 0.0049 | 0.41 ± 0.014 | 0.4004 ± 0.002 | 0.51 ± 0.017 | 0.4497 ± 0.00073
4 | FFVFYICSCFLV | 0.444 ± 0.037 | 0.476 ± 0.0043 | 0.389 ± 0.02 | 0.4843 ± 0.0041 | 0.457 ± 0.0071 | 0.372 ± 0.0097 | 0.442 ± 0.024 | 0.4 ± 0.047
5 | GINYSNKKILVN | 0.574 ± 0.016 | 0.6729 ± 0.0015 | 0.493 ± 0.027 | 0.691 ± 0.026 | 0.278 ± 0.022 | 0.273 ± 0.033 | 0.57 ± 0.0072 | 0.444 ± 0.059
6 | PVWLFLVRAIKG | 0.431 ± 0.048 | 0.455 ± 0.024 | 0.321 ± 0.028 | 0.5125 ± 0.002 | 0.262 ± 0.0072 | 0.33 ± 0.029 | 0.512 ± 0.056 | 0.431 ± 0.0097
7 | DWCACFFILLLA | 0.0391 ± 0.0052 | 0.0382 ± 0.012 | 0.117 ± 0.026 | 0.17 ± 0.016 | 0.145 ± 0.0095 | 0.0983 ± 0.018 | 0.111 ± 0.028 | 0.152 ± 0.019
8 | IVEVNCILMWIF | 0.423 ± 0.024 | 0.489 ± 0.026 | 0.365 ± 0.021 | 0.532 ± 0.029 | 0.345 ± 0.037 | 0.369 ± 0.041 | 0.469 ± 0.044 | 0.4398 ± 0.00029
9 | TVETYNRARKAS | 0.663 ± 0.0089 | 0.674 ± 0.014 | 0.631 ± 0.038 | 0.7 ± 0.015 | 0.218 ± 0.013 | 0.232 ± 0.039 | 0.412 ± 0.005 | 0.373 ± 0.075
10 | VFFLAFYFYRCF | 0.405 ± 0.02 | 0.464 ± 0.018 | 0.416 ± 0.015 | 0.545 ± 0.0085 | 0.186 ± 0.0064 | 0.194 ± 0.029 | 0.365 ± 0.0085 | 0.262 ± 0.02
11 | VFYWVGVLCGWG | 0.298 ± 0.0073 | 0.391 ± 0.045 | 0.293 ± 0.026 | 0.4352 ± 0.0014 | 0.252 ± 0.012 | 0.29 ± 0.023 | 0.405 ± 0.018 | 0.375 ± 0.007
12 | LFFVVFFLLFLL | 0.402 ± 0.0091 | 0.446 ± 0.028 | 0.36 ± 0.026 | 0.477 ± 0.029 | 0.389 ± 0.0099 | 0.337 ± 0.023 | 0.453 ± 0.026 | 0.411 ± 0.025
13 | GELVLVMYGIWV | 0.392 ± 0.013 | 0.47 ± 0.0055 | 0.29 ± 0.028 | 0.502 ± 0.013 | 0.238 ± 0.0055 | 0.277 ± 0.033 | 0.458 ± 0.0063 | 0.351 ± 0.058
14 | PPRRCFPLLLFF | 0.44 ± 0.094 | 0.4471 ± 0.0019 | 0.445 ± 0.022 | 0.546 ± 0.01 | 0.208 ± 0.0085 | 0.209 ± 0.014 | 0.331 ± 0.012 | 0.235 ± 0.036
15 | ASIEVGNVIKQM | 0.672 ± 0.051 | 0.7189 ± 0.0025 | 0.627 ± 0.036 | 0.7202 ± 0.0061 | 0.375 ± 0.0075 | 0.43 ± 0.019 | 0.632 ± 0.027 | 0.518 ± 0.037
